According to paper PMC10511320, “R-loop-dependent promoter-proximal termination ensures genome stability”:

How the values were obtained:
SSB1 S172P/H173L = SSB1 S172P/H173L (human, UniProt Q9BQ15 1-211, S172P;H173L); experiment: EMSA; retains ssDNA binding; EMSA: 100 nM Cy3 probe, 20 mM Tris-HCl pH 7.5, 50 mM NaCl, 5 mM MgCl2, 0.2 mM EDTA, 1 mM DTT, on ice 30 min; 6% native PAGE, 0.5x TBE, cold room; settings: protein: recombinant; label: 3' Cy3
SSB1 R206Q = SSB1 R206Q (human, UniProt Q9BQ15 1-211, R206Q); experiment: as above; settings: protein: recombinant; label: 3' Cy3
Chain of SSB1 R206Q (Q9BQ15 whole entry R206Q): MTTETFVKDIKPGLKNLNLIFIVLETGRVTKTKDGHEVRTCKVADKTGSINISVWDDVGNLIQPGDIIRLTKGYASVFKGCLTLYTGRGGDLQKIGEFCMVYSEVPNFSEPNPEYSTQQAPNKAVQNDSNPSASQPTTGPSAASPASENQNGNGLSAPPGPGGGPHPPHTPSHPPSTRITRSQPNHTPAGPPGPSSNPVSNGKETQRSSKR

[1] = molecular target: SSB1;INTAC complex (Integrator-PP2A) (human;human, UniProt Q9BQ15;Q8N201;Q9H0H0;Q68E01;Q96HW7;Q6P9B9;Q9UL03;Q9NVH2;Q75QN2;Q9NV88;Q9NVR2;Q5T …, |); experiment: EMSA; supershift versus SSB1 alone; EMSA: 100 nM Cy3 probe, 20 mM Tris-HCl pH 7.5, 50 mM NaCl, 5 mM MgCl2, 0.2 mM EDTA, 1 mM DTT, on ice 30 min; 6% native PAGE, 0.5x TBE, cold room; settings: protein: recombinant;recombinant; on-column cleavage; copies: 1;1;1;1;1;1;1;1;1;1;1;1;1;1;1;1;1; label: 3' Cy3

Measured: binding result

Chain of SSB1 S172P/H173L (Q9BQ15 whole entry S172P/H173L): as the sequence (Q9BQ15 whole entry R206Q) above, with S172P, H173L, Q206R counted along it

TTTTTTTTTTTTTTTTTTTTTTTTTTTTTTTTTTTTTTTTTTTTTTTT (ssDNA) [oligo (dT)48]
binds: all assays above
